From patent US20240238420A1 (WUHAN UNIVERSITY, published 2024)
Values belong to the molecule of their own block, whether it stands above or below them.

How the values were obtained:
[1] = molecular target: CD123 combined mutant R84Q-V85I (Homo sapiens (Human)) (UniProt P26951); assay: scFv-luciferase binding to transfected HEK 293T cells (FIG. 4A)
[2] = molecular target: CD123 combined mutant R84Q-V85M (Homo sapiens (Human)) (UniProt P26951); assay: as above
wild-type CD33 protein = molecular target: T1, wild-type CD33 protein (Homo sapiens (Human), UniProt P20138 18-364); assay: scFv-luciferase binding to HEK 293T cells transfected with wildtype or mutant CD33 (RLU)
T1 construct: Expressed in transfected HEK 293T cells; A flag tag is mentioned for the Western blot constructs; no signal peptide limits are stated; also called Siglec3
T1 sequence (P20138 18-364 limits assumed): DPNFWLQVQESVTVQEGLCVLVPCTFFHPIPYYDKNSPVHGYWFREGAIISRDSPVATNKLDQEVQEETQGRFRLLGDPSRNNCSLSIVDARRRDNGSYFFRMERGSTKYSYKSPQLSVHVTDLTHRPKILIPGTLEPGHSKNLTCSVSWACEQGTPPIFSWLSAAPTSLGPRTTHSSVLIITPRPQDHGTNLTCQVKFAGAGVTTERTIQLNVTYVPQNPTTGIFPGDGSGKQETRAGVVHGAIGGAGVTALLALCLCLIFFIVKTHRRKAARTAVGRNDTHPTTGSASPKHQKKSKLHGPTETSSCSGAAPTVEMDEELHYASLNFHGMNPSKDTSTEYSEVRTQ
Description: FIG. 1A-D. Determination of epitopes of CD33 that mediate the interaction by anti-CD33 scFv clone my9.6 or HM195. (A) Binding affinity of indicated CD33 mutations with anti-CD33 scFV clone my9.6. HEK 293T cells were transfected with wildtype or indicated CD33 mutant and then incubated with anti-CD33 scFV-luciferase fusion proteins, RLU: relative luminescence units. (B) Western blot of CD33 expression. HEK293T cells were transfected with flag tagged wild-type or indicated CD33 mutants. (C) Binding affinity of additional CD33 mutations. RLU: relative luminescence units (D) Western blot of CD33 expression. HEK293T cells were transfected with flag tagged wild-type or indicated CD33 mutants.
HEK 293T cells were transfected with wildtype or certain CD33 mutants and then incubated with anti-CD33 scFV-luciferase fusion proteins. The mutated residues included W22, C41, W60, I105, D112, Y116, F118, S131, and P132. The tested antibodies included my9.6 and HM195. […] FIGS. 1B and […] present Western blot images of CD33 expression from the transfected cells.

wild-type CD123 protein = molecular target: T2, wild-type CD123 protein (Homo sapiens (Human), UniProt P26951 19-378); assay: scFv-luciferase binding to HEK 293T cells transfected with wildtype or mutant CD123
T2 construct: no signal peptide limits are stated; also called alpha chain of interleukin-3 receptor
T2 sequence (P26951 19-378 limits assumed): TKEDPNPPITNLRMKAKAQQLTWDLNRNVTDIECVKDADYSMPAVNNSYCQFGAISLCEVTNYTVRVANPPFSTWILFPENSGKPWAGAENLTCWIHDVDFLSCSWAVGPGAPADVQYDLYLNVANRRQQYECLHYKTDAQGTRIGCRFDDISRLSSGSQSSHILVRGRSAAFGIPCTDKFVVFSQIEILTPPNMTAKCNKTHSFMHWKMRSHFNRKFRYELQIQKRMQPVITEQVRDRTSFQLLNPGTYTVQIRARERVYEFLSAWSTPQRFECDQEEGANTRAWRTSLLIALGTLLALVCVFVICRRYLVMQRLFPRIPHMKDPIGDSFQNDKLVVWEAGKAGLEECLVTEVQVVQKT
Description: HEK 293T cells were transfected with wildtype or indicated CD123 mutant and then incubated with anti-CD123 scFv-luciferase fusion proteins. (B) Western blot of CD123 expression. HEK293T cells were transfected with flag tagged wild-type or indicated CD123 mutants.
HEK 293T cells were transfected with wildtype or indicated CD123 mutant and then incubated with anti-CD123 scFv-luciferase fusion proteins. […] The expression of these mutants was confirmed by Western blot (FIG. 3B).

Sequence of CD123 combined mutant R84Q-V85I (Homo sapiens (Human)) (P26951 19-378 R84Q/V85I limits assumed): as the sequence (P26951 19-378 limits assumed) above, with R66Q, V67I counted along it
Sequence of CD123 combined mutant R84Q-V85M (Homo sapiens (Human)) (P26951 19-378 R84Q/V85M limits assumed): as the sequence (P26951 19-378 limits assumed) above, with R66Q, V67M counted along it

- fold decrease of affinity (combined mutant against reference) [1]: 100 fold
- fold decrease of affinity (combined mutant against reference) [2]: 100 fold
Molecule: anti-CD123 scFv clone CSL362, scFv-luciferase fusion protein

- binding result (wild-type CD33 protein): binds
B1: anti-CD33 scFv clone HM195, scFv-luciferase fusion protein (scFv, V domains shown)
VH: QVQLVQSGAEVKKPGSSVKVSCKASGYTFTDYNMHWVRQAPGQGLEWIGYIYPYNGGTGYNQKFKSKATITADESTNTAYMELSSLRSEDTAVYYCARGRPAMDYWGQGTLVTVSS
VL: DIQMTQSPSSLSASVGDRVTITCRASESVDNYGISFMNWFQQKPGKAPKLLIYAASNQGSGVPSRFSGSGSGTDFTLTISSLQPDDFATYYCQQSKEVPWTFGQGTKVEIK
notes: Tested as an scFv-luciferase fusion protein

- binding result (wild-type CD123 protein): binds
B2: anti-CD123 scFv clone 32716, scFv-luciferase fusion protein (scFv, V domains shown)
VH: QIQLVQSGPELKKPGETVKISCKASGYIFTNYGMNWVKQAPGKSFKWMGWINTYTGESTYSADFKGRFAFSLETSASTAYLHINDLKNEDTATYFCARSGGYDPMDYWGQGTSVTVSS
VL: DIVLTQSPASLAVSLGQRATISCRASESVDNYGNTFMHWYQQKPGQPPKLLIYRASNLESGIPARFSGSGSRTDFTLTINPVEADDVATYYCQQSNEDPPTFGAGTKLELK
